Measured values published in US20210292396A1 (INTERNATIONAL AIDS VACCINE INITIATIVE, published 2021).

Assays:
Assay in all cases: cell-based or functional assay
[1] = molecular target: HIV Env of isolate C4118.c09 (HIV)
[2] = molecular target: HIV Env of isolate BJOX010000.06.2 (HIV)
[3] = molecular target: HIV Env of isolate BJOX028000.10.3 (HIV)
[4] = molecular target: HIV Env of isolate 6540.v4.c1 (HIV)
[5] = molecular target: HIV Env of isolate 6545.v4.c1 (HIV)
[6] = molecular target: HIV Env of isolate SC05_8C11_2344 (HIV)
[7] = molecular target: HIV Env of isolate Du156.12 (HIV)
[8] = molecular target: HIV Env of isolate Du172.17 (HIV)
[9] = molecular target: HIV Env of isolate CAP210.2.00.E8 (HIV)
[10] = molecular target: HIV Env of isolate Ce1176_A3 (HIV)
[11] = molecular target: HIV Env of isolate CNE52 (HIV)
[12] = molecular target: HIV Env of isolate 0330.v4.c3 (HIV)
[13] = molecular target: HIV Env of isolate T251-18 (HIV)
[14] = molecular target: HIV Env of isolate 235-47 (HIV)
[15] = molecular target: HIV Env of isolate X1193_c1 (HIV)
[16] = molecular target: HIV Env of isolate X1254_c3 (HIV)
[17] = molecular target: HIV Env of isolate P1981_C5_3 (HIV)
[18] = molecular target: HIV Env of isolate 6480.v4.c25 (HIV)
[19] = molecular target: HIV Env of isolate 6952.v1.c20 (HIV)
[20] = molecular target: HIV Env of isolate 0815.v3.c3 (HIV)
[21] = molecular target: HIV Env of isolate QH0692.42 (HIV)
[22] = molecular target: HIV Env of isolate REJO4541.67 (HIV)
[23] = molecular target: HIV Env of isolate 1012_11_TC21_3257 (HIV)
[24] = molecular target: HIV Env of isolate 62357_14_D3_4589 (HIV)
[25] = molecular target: HIV Env of isolate Du172.17 (HIV); remark: listed apart in the source
[26] = molecular target: HIV Env of isolate Du422.1 (HIV)
[27] = molecular target: HIV Env of isolate ZM214M.PL15 (HIV)
[28] = molecular target: HIV Env of isolate ZM135M.PL10a (HIV)
[29] = molecular target: HIV Env of isolate HIV-16845-2.22 (HIV)
[30] = molecular target: HIV Env of isolate Ce1176_A3 (HIV); remark: listed apart in the source
[31] = molecular target: HIV Env of isolate CNE19 (HIV)
[32] = molecular target: HIV Env of isolate CNE30 (HIV)
[33] = molecular target: HIV Env of isolate CNE52 (HIV); remark: listed apart in the source
[34] = molecular target: HIV Env of isolate 0330.v4.c3 (HIV); remark: listed apart in the source
[35] = molecular target: HIV Env of isolate 191084_B7-19 (HIV)
[36] = molecular target: HIV Env of isolate T278-50 (HIV)
[37] = molecular target: HIV Env of isolate BJOX028000.10.3 (HIV); remark: listed apart in the source
[38] = molecular target: HIV Env of isolate 231965.c01 (HIV)
[39] = molecular target: HIV Env of isolate 6041.v3.c23 (HIV)
[40] = molecular target: HIV Env of isolate 6540.v4.c1 (HIV); remark: listed apart in the source
[41] = molecular target: HIV Env of isolate ZM249M.PL1 (HIV)
[42] = molecular target: HIV Env of isolate HIV-0013095-2.11 (HIV)
[43] = molecular target: HIV Env of isolate HIV-16055-2.3 (HIV)
[44] = molecular target: HIV Env of isolate Ce2060_G9 (HIV)
[45] = molecular target: HIV Env of isolate 249M_B10 (HIV)

B1: PGT-121 (antibody, V domains shown)
VH: QMQLQESGPGLVKPSETLSLTCSVSGASISDSYWSWIRRSPGKGLEWIGYVHKSGDTNYSPSLKSRVNLSLDTSKNQVSLSLVAATAADSGKYYCARTLHGRRIYGIVAFNEWFTYFYMDVWGNGTQVTVSS
VL: SDISVAPGETARISCGEKSLGSRAVQWYQHRAGQAPSLIIYNNQDRPSGIPERFSGSPDSPFGTTATLTITSVEAGDEADYYCHIWDSRVPTKWVFGGGTTLTVLG
[1]
  neutralization IC50: > 50 µg/mL
[2]
  neutralization IC50: > 50 µg/mL
[3]
  neutralization IC50: > 50 µg/mL
[4]
  neutralization IC50: > 50 µg/mL
[5]
  neutralization IC50: > 50 µg/mL
[6]
  neutralization IC50: 0.019 µg/mL
[7]
  neutralization IC50: 0.004 µg/mL
[8]
  neutralization IC50: 0.033 µg/mL
[9]
  neutralization IC50: 26.3 µg/mL
[10]
  neutralization IC50: 0.013 µg/mL
[11]
  neutralization IC50: 2.05 µg/mL
[12]
  neutralization IC50: 0.05 µg/mL
[13]
  neutralization (Table 6 value): 1.16
[14]
  neutralization (Table 6 value): 0.0457
[15]
  neutralization (Table 6 value): 0.000417
[16]
  neutralization (Table 6 value): 0.0206
[17]
  neutralization (Table 6 value): 0.00146
[18]
  neutralization (Table 6 value): 0.000306
[19]
  neutralization (Table 6 value): 0.000292
[20]
  neutralization (Table 6 value): 7.9e-05
[21]
  neutralization (Table 6 value): 0.176
[22]
  neutralization (Table 6 value): 0.286
[23]
  neutralization (Table 6 value): 0.00917
[24]
  neutralization (Table 6 value): 0.392
[25]
  neutralization (Table 6 value): 0.0316
[26]
  neutralization (Table 6 value): 0.00172
[27]
  neutralization (Table 6 value): 0.119
[28]
  neutralization (Table 6 value): 1.32
[29]
  neutralization (Table 6 value): 0.25
[30]
  neutralization (Table 6 value): 0.00882
[31]
  neutralization (Table 6 value): 0.00315
[32]
  neutralization (Table 6 value): 0.00313
[33]
  neutralization (Table 6 value): 1.94
[34]
  neutralization (Table 6 value): 0.0513
[35]
  neutralization (Table 6 value): 0.0247

B2: ePGT121.15.H1.L1 (antibody, V domains shown)
VH: QMQLQESGPGLVKPGETLSLTCSVSGASISSSYWSWLRETPGKGLEWIGYTHHSGDTNYAPSLKSRVHLGLHPSKNQVSLSLTSVTAADTAVYYCARTLHGRRIYGVVAFNEWFTYFYWEVWGNGTQVTVSS
VL: SDISVAPGETVRISCGGESIGSRAVQWYQHRAGQAPKLIIYNNQDRPPGIPERFSGSPDIDFGTTATLTITNVEAGDEATYYCHIWDSRRPTNWVFGGGTTLTVL
[1]
  neutralization IC50: > 50 µg/mL
[2]
  neutralization IC50: > 50 µg/mL
[3]
  neutralization IC50: 0.0021 µg/mL
[4]
  neutralization IC50: > 50 µg/mL
[5]
  neutralization IC50: > 50 µg/mL
[6]
  neutralization IC50: 0.0009 µg/mL
[7]
  neutralization IC50: 0.0001 µg/mL
[8]
  neutralization IC50: 0.0002 µg/mL
[9]
  neutralization IC50: 0.0052 µg/mL
[10]
  neutralization IC50: 0.0004 µg/mL
[11]
  neutralization IC50: 0.0203 µg/mL
[12]
  neutralization IC50: 0.0015 µg/mL
[13]
  neutralization (Table 6 value): 0.0274
[36]
  neutralization (Table 6 value): 0.0232
[14]
  neutralization (Table 6 value): 0.0061
[37]
  neutralization (Table 6 value): 0.0278
[15]
  neutralization (Table 6 value): 0.000256
[16]
  neutralization (Table 6 value): 0.00299
[17]
  neutralization (Table 6 value): 0.00069
[38]
  neutralization (Table 6 value): 0.68
[18]
  neutralization (Table 6 value): 0.000305
[19]
  neutralization (Table 6 value): 0.00081
[39]
  neutralization (Table 6 value): 0.396
[40]
  neutralization (Table 6 value): 0.249
[20]
  neutralization (Table 6 value): 0.00167
[21]
  neutralization (Table 6 value): 0.0149
[22]
  neutralization (Table 6 value): 0.311
[23]
  neutralization (Table 6 value): 0.00262
[24]
  neutralization (Table 6 value): 0.00982
[25]
  neutralization (Table 6 value): 0.0024
[26]
  neutralization (Table 6 value): 0.00243
[27]
  neutralization (Table 6 value): 0.0146
[41]
  neutralization (Table 6 value): 0.00404
[28]
  neutralization (Table 6 value): 0.11
[42]
  neutralization (Table 6 value): 1.07
[43]
  neutralization (Table 6 value): 1.07
[29]
  neutralization (Table 6 value): 0.0209
[30]
  neutralization (Table 6 value): 0.00282
[44]
  neutralization (Table 6 value): 0.0102
[45]
  neutralization (Table 6 value): 0.00639
[31]
  neutralization (Table 6 value): 0.00103
[32]
  neutralization (Table 6 value): 0.00299
[33]
  neutralization (Table 6 value): 0.0515
[34]
  neutralization (Table 6 value): 0.00621
[35]
  neutralization (Table 6 value): 0.00279

B3: ePGT121.15.H6.L1 (antibody, V domains shown)
VH: QMQLQESGPGLVKPGETLSLTCSVSGASISSSYWSWLRETPGKGLEWIGYTHHSGDTNYAPSLKSRVHLGLHPSKNQVSLSLTSVTAADTAVYYCARTLHGRRIYGVVAFNEFFTYFYWEVWGKGTQVTVSS
VL: SDISVAPGETVRISCGGESIGSRAVQWYQHRAGQAPKLIIYNNQDRPPGIPERFSGSPDIDFGTTATLTITNVEAGDEATYYCHIWDSRRPTNWVFGGGTTLTVL
[13]
  neutralization (Table 6 value): 0.0274
[36]
  neutralization (Table 6 value): 0.0263
[14]
  neutralization (Table 6 value): 0.00363
[37]
  neutralization (Table 6 value): 0.00171
[15]
  neutralization (Table 6 value): 0.000518
[16]
  neutralization (Table 6 value): 0.00272
[17]
  neutralization (Table 6 value): 0.000543
[38]
  neutralization (Table 6 value): 1.27
[18]
  neutralization (Table 6 value): 0.000826
[19]
  neutralization (Table 6 value): 0.000793
[39]
  neutralization (Table 6 value): 0.417
[40]
  neutralization (Table 6 value): 0.612
[20]
  neutralization (Table 6 value): 0.00022
[21]
  neutralization (Table 6 value): 0.0126
[22]
  neutralization (Table 6 value): 8e-06
[23]
  neutralization (Table 6 value): 0.00194
[24]
  neutralization (Table 6 value): 0.0132
[25]
  neutralization (Table 6 value): 0.00203
[26]
  neutralization (Table 6 value): 0.00264
[27]
  neutralization (Table 6 value): 0.00993
[41]
  neutralization (Table 6 value): 0.0127
[28]
  neutralization (Table 6 value): 0.168
[42]
  neutralization (Table 6 value): 0.635
[43]
  neutralization (Table 6 value): 0.635
[29]
  neutralization (Table 6 value): 0.0283
[30]
  neutralization (Table 6 value): 0.00302
[44]
  neutralization (Table 6 value): 0.0369
[45]
  neutralization (Table 6 value): 0.0118
[31]
  neutralization (Table 6 value): 0.000806
[32]
  neutralization (Table 6 value): 0.00289
[33]
  neutralization (Table 6 value): 0.0784
[34]
  neutralization (Table 6 value): 0.00764
[35]
  neutralization (Table 6 value): 0.00312
